Measured values published in article PMC9482650, “Quantitative fragmentomics allow affinity mapping of interactomes” (Nature Communications, 2022).

T1: DLG3_1, Q92796
T1 sequence (Q92796 125-227, limits assumed, looked up): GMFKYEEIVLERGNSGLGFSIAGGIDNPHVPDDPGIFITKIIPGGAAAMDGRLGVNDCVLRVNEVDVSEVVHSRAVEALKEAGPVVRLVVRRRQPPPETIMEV

T2: TX1BP3, O14907
T2 sequence (O14907 10-122, limits assumed, looked up): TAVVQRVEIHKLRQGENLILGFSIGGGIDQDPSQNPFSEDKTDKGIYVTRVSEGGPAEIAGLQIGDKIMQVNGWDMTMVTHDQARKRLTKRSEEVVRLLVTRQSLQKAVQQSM

T3: LNX2_2, Q8N448
T3 sequence (Q8N448 334-432, limits assumed, looked up): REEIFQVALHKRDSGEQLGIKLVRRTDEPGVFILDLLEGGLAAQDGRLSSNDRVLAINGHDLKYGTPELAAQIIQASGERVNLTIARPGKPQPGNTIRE

T4: MPDZ_5, O75970
T4 sequence (O75970 695-796, limits assumed, looked up): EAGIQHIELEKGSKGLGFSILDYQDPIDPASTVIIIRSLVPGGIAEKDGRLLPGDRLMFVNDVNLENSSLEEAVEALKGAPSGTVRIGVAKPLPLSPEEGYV

T5: APBA3_1, O96018
T5 sequence (O96018 389-490, limits assumed, looked up): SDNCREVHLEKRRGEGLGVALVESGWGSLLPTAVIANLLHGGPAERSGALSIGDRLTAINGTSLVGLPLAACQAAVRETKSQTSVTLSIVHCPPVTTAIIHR

T6: APBA1_2, Q02410
T6 sequence (Q02410 742-832, limits assumed, looked up): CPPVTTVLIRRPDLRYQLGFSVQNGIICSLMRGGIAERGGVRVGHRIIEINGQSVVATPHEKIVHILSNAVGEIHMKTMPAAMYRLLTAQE

T7: DLG3_2, Q92796
T7 sequence (Q92796 221-321, limits assumed, looked up): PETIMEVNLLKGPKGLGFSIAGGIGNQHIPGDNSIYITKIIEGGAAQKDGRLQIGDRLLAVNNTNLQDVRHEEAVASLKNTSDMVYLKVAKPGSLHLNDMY

T8: SNTB1, Q13884
T8 sequence (Q13884 107-205, limits assumed, looked up): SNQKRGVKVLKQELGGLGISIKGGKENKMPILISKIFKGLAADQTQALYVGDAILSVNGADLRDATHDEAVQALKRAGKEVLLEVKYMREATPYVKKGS

T9: APBA1_1, Q02410
T9 sequence (Q02410 651-752, limits assumed, looked up): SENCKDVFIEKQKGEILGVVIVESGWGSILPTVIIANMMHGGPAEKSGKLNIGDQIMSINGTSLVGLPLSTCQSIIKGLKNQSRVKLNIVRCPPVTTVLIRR

T10: MPP2, Q14168
T10 sequence (Q14168 180-250, limits assumed, looked up): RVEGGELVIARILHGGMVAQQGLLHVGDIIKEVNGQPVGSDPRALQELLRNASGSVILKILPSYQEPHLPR

T11: RADIL, Q96JH8
T11 sequence (Q96JH8 971-1071, limits assumed, looked up): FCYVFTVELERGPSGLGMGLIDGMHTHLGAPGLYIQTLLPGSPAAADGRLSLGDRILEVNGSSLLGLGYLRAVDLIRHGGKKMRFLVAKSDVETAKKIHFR

T12: GRIP1_2, Q9Y3R0
T12 sequence (Q9Y3R0 145-248, limits assumed, looked up): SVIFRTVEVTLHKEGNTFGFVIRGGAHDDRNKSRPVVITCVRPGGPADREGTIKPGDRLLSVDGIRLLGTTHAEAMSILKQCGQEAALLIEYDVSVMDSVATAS


Columns and labels:
Experiment in all cases: holdup assay
Parameters in all cases: key: below the threshold = too weak to quantify, mostly under pKd 3.1 to 4
Conditions in all cases: plain residues with an end cap or a label only (N-terminal biotin on a linker: ado-ado)
TJP2_1, Q9UDY2 = biological target: TJP2_1, Q9UDY2
MAGI3_2, Q5TCQ9 = biological target: MAGI3_2, Q5TCQ9
DLG3_1, Q92796 = biological target: T1, DLG3_1, Q92796
DLG2_2, Q15700 = biological target: DLG2_2, Q15700
TX1BP3, O14907 = biological target: T2, TX1BP3, O14907
LNX1_2, Q8TBB1 = biological target: LNX1_2, Q8TBB1
LNX2_2, Q8N448 = biological target: T3, LNX2_2, Q8N448
MPDZ_5, O75970 = biological target: T4, MPDZ_5, O75970
APBA3_1, O96018 = biological target: T5, APBA3_1, O96018
APBA1_2, Q02410 = biological target: T6, APBA1_2, Q02410
DLG3_2, Q92796 = biological target: T7, DLG3_2, Q92796
MAGI2_4, Q86UL8 = biological target: MAGI2_4, Q86UL8
TJP1_2, Q07157 = biological target: TJP1_2, Q07157
DLG1_2, Q12959 = biological target: DLG1_2, Q12959
SNTB1, Q13884 = biological target: T8, SNTB1, Q13884
ARHGEF12, Q9NZN5-2 = biological target: ARHGEF12, Q9NZN5-2
PICK1, Q9NRD5 = biological target: PICK1, Q9NRD5
LAP2, Q96RT1 = biological target: LAP2, Q96RT1
APBA1_1, Q02410 = biological target: T9, APBA1_1, Q02410
MPP2, Q14168 = biological target: T10, MPP2, Q14168
Inadl_10, Q8NI35 = biological target: Inadl_10, Q8NI35
CASK, O14936 = biological target: CASK, O14936
RADIL, Q96JH8 = biological target: T11, RADIL, Q96JH8
GRIP1_2, Q9Y3R0 = biological target: T12, GRIP1_2, Q9Y3R0
PDZRN4_1, Q6ZMN7 = biological target: PDZRN4_1, Q6ZMN7
DLG4_3, P78352 = biological target: DLG4_3, P78352
DLG4_3, P78352, sequence (P78352 306-403): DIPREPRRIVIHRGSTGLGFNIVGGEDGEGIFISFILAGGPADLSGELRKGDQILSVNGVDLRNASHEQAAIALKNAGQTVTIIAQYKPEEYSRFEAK

MAGI2_4, Q86UL8, sequence (Q86UL8 772-865): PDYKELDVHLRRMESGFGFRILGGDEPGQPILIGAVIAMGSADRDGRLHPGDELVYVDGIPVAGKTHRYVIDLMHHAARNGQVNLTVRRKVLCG
TJP1_2, Q07157, sequence (Q07157 181-274): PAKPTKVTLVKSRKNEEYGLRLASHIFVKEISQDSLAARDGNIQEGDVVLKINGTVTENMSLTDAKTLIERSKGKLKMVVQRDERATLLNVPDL
CASK, O14936, sequence (O14936 487-570): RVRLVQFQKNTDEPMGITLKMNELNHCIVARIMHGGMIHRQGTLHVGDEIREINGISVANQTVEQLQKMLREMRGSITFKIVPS
LAP2, Q96RT1, sequence (Q96RT1 other isoform, or with tags, fused parts or gaps): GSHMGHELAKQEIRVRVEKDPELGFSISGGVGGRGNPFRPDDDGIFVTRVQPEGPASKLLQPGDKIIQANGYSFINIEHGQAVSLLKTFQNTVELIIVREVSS
LNX1_2, Q8TBB1, sequence (Q8TBB1 371-470): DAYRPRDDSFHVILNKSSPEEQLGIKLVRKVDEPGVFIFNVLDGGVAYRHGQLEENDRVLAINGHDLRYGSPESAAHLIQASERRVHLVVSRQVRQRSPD
DLG1_2, Q12959, sequence (Q12959 314-412): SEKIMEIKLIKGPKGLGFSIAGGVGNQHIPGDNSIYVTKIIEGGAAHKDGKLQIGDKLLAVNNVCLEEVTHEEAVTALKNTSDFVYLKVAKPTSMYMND
TJP2_1, Q9UDY2, sequence (Q9UDY2 24-128): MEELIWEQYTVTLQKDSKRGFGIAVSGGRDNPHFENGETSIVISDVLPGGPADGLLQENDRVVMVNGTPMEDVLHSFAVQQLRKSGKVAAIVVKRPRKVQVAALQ
MAGI3_2, Q5TCQ9, sequence (Q5TCQ9 398-503): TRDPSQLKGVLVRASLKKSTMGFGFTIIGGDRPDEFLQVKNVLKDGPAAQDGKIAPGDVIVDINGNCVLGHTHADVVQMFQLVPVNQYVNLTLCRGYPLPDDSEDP
PDZRN4_1, Q6ZMN7, sequence (Q6ZMN7 213-318): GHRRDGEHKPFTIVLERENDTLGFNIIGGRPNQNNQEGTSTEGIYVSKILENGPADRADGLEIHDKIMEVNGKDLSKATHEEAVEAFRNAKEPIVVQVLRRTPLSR
PICK1, Q9NRD5, sequence (Q9NRD5 17-115): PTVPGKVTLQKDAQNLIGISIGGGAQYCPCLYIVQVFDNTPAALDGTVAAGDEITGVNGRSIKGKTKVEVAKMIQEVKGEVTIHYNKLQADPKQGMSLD
DLG2_2, Q15700, sequence (Q15700 189-283): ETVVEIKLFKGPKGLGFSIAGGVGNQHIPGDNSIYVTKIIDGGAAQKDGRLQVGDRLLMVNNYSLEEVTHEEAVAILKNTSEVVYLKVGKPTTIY
Inadl_10, Q8NI35, sequence (Q8NI35 1673-1763): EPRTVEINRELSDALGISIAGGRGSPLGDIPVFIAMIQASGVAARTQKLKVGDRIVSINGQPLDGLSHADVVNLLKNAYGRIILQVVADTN
ARHGEF12, Q9NZN5-2, sequence (Q9NZN5 other isoform, or with tags, fused parts or gaps): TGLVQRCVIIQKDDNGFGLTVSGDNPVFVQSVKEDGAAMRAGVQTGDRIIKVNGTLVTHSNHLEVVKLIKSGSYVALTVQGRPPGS

Row | pKd (TJP2_1, Q9UDY2) | pKd (MAGI3_2, Q5TCQ9) | pKd (DLG3_1, Q92796) | pKd (DLG2_2, Q15700) | pKd (TX1BP3, O14907) | pKd (LNX1_2, Q8TBB1) | pKd (LNX2_2, Q8N448) | pKd (MPDZ_5, O75970) | pKd (APBA3_1, O96018) | pKd (APBA1_2, Q02410) | pKd (DLG3_2, Q92796) | pKd (MAGI2_4, Q86UL8) | pKd (TJP1_2, Q07157) | pKd (DLG1_2, Q12959) | pKd (SNTB1, Q13884) | pKd (ARHGEF12, Q9NZN5-2) | pKd (PICK1, Q9NRD5) | pKd (LAP2, Q96RT1) | pKd (APBA1_1, Q02410) | pKd (MPP2, Q14168) | Binder | other results
1 | below the threshold | 4.05 | below the threshold | 3.74 | 3.98 | 4.55 | 5.6 | below the threshold | below the threshold | 4.07 | 3.53 | 4.07 | below the threshold | 4.3 | 3.95 | 3.85 | below the threshold | 3.84 | below the threshold | below the threshold | KIEDVEITLV [FCHSD2, O94868] | pKd (Inadl_10, Q8NI35): below the threshold; pKd (CASK, O14936): below the threshold; pKd (RADIL, Q96JH8): 5.03; pKd (GRIP1_2, Q9Y3R0): below the threshold; pKd (PDZRN4_1, Q6ZMN7): 3.64; pKd (DLG4_3, P78352): below the threshold
2 | below the threshold | below the threshold | below the threshold | below the threshold | below the threshold | below the threshold | below the threshold | below the threshold | below the threshold | below the threshold | 4.23 | 3.88 | below the threshold | 3.64 | below the threshold | below the threshold | 4.01 | below the threshold | below the threshold | below the threshold | QKASRNESTF [POLR1D, P0DPB6] | pKd (Inadl_10, Q8NI35): below the threshold; pKd (CASK, O14936): below the threshold; pKd (RADIL, Q96JH8): below the threshold; pKd (GRIP1_2, Q9Y3R0): below the threshold; pKd (PDZRN4_1, Q6ZMN7): below the threshold; pKd (DLG4_3, P78352): below the threshold
3 | below the threshold | below the threshold | below the threshold | below the threshold | 3.53 | below the threshold | below the threshold | below the threshold | below the threshold | below the threshold | 3.96 | below the threshold | below the threshold | below the threshold | below the threshold | 4.28 | 4.11 | below the threshold | below the threshold | below the threshold | RDYTQSSSSL [GRM5, P41594] | pKd (Inadl_10, Q8NI35): below the threshold; pKd (CASK, O14936): below the threshold; pKd (RADIL, Q96JH8): below the threshold; pKd (GRIP1_2, Q9Y3R0): below the threshold; pKd (PDZRN4_1, Q6ZMN7): below the threshold; pKd (DLG4_3, P78352): below the threshold
4 | below the threshold | below the threshold | below the threshold | below the threshold | below the threshold | below the threshold | below the threshold | below the threshold | below the threshold | 4.24 | 4.18 | below the threshold | below the threshold | below the threshold | below the threshold | below the threshold | 4.08 | below the threshold | 3.88 | below the threshold | MQILSKPEFI [NPSR1, Q6W5P4] | pKd (Inadl_10, Q8NI35): below the threshold; pKd (CASK, O14936): below the threshold; pKd (RADIL, Q96JH8): 4.42; pKd (GRIP1_2, Q9Y3R0): below the threshold; pKd (PDZRN4_1, Q6ZMN7): below the threshold; pKd (DLG4_3, P78352): 3.49
5 | below the threshold | below the threshold | below the threshold | 3.52 | below the threshold | below the threshold | below the threshold | below the threshold | below the threshold | below the threshold | 3.92 | below the threshold | below the threshold | 4.23 | 4.17 | 3.58 | below the threshold | 3.67 | below the threshold | below the threshold | KEKASTETEC [TRPM1, Q7Z4N2] | pKd (Inadl_10, Q8NI35): below the threshold; pKd (CASK, O14936): below the threshold; pKd (RADIL, Q96JH8): below the threshold; pKd (GRIP1_2, Q9Y3R0): below the threshold; pKd (PDZRN4_1, Q6ZMN7): below the threshold; pKd (DLG4_3, P78352): 3.65
